Square brackets hold non-standard residues; d marks the D form. Ends that are not written are not given here.
T1: synthetic amyloid fibrils composed of human islet amyloid polypeptide (human, UniProt P10997 34-70)
T1 peptide (looked up): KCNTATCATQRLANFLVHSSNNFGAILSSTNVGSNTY


These binders were tested against synthetic amyloid fibrils composed of recombinant Vλ6 protein Wil (assay: SPR).

| Kd [nM] | ka1 (two-state model, first step) [M⁻¹ s⁻¹] | ka2 (two-state model, second step) [s⁻¹] | kd1 (two-state model, first step) [s⁻¹] | kd2 (two-state model, second step) [s⁻¹] | Binder |
| --- | --- | --- | --- | --- | --- |
| 22 | 550000 | 0.0074 | 0.052 | 0.0017 | GGG[dY][dS][dK][dA][dQ][dK][dA][dQ][dA][dK][dQ][dA][dK][dQ][dA][dQ][dK][dA][dQ][dK][dA][dQ][dA][dK][dQ][dA][dK][dQ] [peptide p5(D)] |
| 71 | 120000 | 0.0122 | 0.045 | 0.0024 | GGGYSKAQKAPAKQAKQPQKAQKAPAKQAKQ [peptide p5(Pro3)] |
| 15 | 480000 | 0.0315 | 0.203 | 0.0011 | GGGYSKAQKAQAKQAKQAQKAQKAQAKQAKQ [peptide p5] |
| 34 | 75000 | 7.9e-06 | 0.001 | 1.5e-05 | GGGYSKGGKGGGKGGKGGGKGGKGGGKGGKG [peptide p5(coil)] |
| 25 | 420000 | 0.007 | 0.026 | 0.0028 | VYKVKTKVKTKVKTKVKT [peptide p5(sheet)] |

Each binder was assayed against synthetic amyloid fibrils composed of Aβ(1-40) peptide (assay: pull-down).

| ratio of 1 M/0.15 M pulldown data (bound peptide in 1 M NaCl over that in PBS) | Binder |
| --- | --- |
| 0.21 | VYKVKTKVKTKVKTKVKT (also: radioiodinated with iodine-125, site not given here) [125I-labeled peptide p5(sheet)] |
| 0.01 | GGGYSKAQKAPAKQAKQPQKAQKAPAKQAKQ (also: radioiodinated with iodine-125, site not given here) [125I-labeled peptide p5(Pro3)] |
| 0.07 | GGGYSKGGKGGGKGGKGGGKGGKGGGKGGKG (also: radioiodinated with iodine-125, site not given here) [125I-labeled peptide p5(coil)] |

What follows are binders tested against synthetic amyloid fibrils composed of recombinant Vλ6 protein Wil (assay: pull-down).

| ratio of 1 M/0.15 M pulldown data (bound peptide in 1 M NaCl over that in PBS) | percent inhibition of the binding of m6 (125I-p5) by a 1000-fold molar excess [%] | percent inhibition of the binding of m7 (125I-p5(D)) by a 1000-fold molar excess [%] | Binder |
| --- | --- | --- | --- |
| 0.35 |  |  | VYKVKTKVKTKVKTKVKT (also: radioiodinated with iodine-125, site not given here) [125I-labeled peptide p5(sheet)] |
|  | 95 | 80 | GGGYSKAQKAQAKQAKQAQKAQKAQAKQAKQ [peptide p5] |
| 0.01 |  |  | GGGYSKAQKAPAKQAKQPQKAQKAPAKQAKQ (also: radioiodinated with iodine-125, site not given here) [125I-labeled peptide p5(Pro3)] |
| 0.02 |  |  | GGGYSKGGKGGGKGGKGGGKGGKGGGKGGKG (also: radioiodinated with iodine-125, site not given here) [125I-labeled peptide p5(coil)] |

Molecular target: synthetic amyloid fibrils composed of recombinant Vλ6 protein Wil
Experiment: SPR
Remark: another data set of the same source

| Kd [nM] | Binder |
| --- | --- |
| 5.4 | GGG[dY][dS][dK][dA][dQ][dK][dA][dQ][dA][dK][dQ][dA][dK][dQ][dA][dQ][dK][dA][dQ][dK][dA][dQ][dA][dK][dQ][dA][dK][dQ] [peptide p5(D)] |
| 25 | GGGYSKAQKAPAKQAKQPQKAQKAPAKQAKQ [peptide p5(Pro3)] |
| 3.7 | GGGYSKAQKAQAKQAKQAQKAQKAQAKQAKQ [peptide p5] |
| 18 | GGGYSKGGKGGGKGGKGGGKGGKGGGKGGKG [peptide p5(coil)] |
| 10 | VYKVKTKVKTKVKTKVKT [peptide p5(sheet)] |

Molecular target: T1, synthetic amyloid fibrils composed of …
Experiment: pull-down

| ratio of 1 M/0.15 M pulldown data (bound peptide in 1 M NaCl over that in PBS) | Binder |
| --- | --- |
| 0.2 | VYKVKTKVKTKVKTKVKT (also: radioiodinated with iodine-125, site not given here) [125I-labeled peptide p5(sheet)] |
| 0.07 | GGGYSKAQKAPAKQAKQPQKAQKAPAKQAKQ (also: radioiodinated with iodine-125, site not given here) [125I-labeled peptide p5(Pro3)] |
| 0.12 | GGGYSKGGKGGGKGGKGGGKGGKGGGKGGKG (also: radioiodinated with iodine-125, site not given here) [125I-labeled peptide p5(coil)] |

Reference: publication PMC5363963 (Biochemistry and Biophysics Reports, 2016)
